Data set [1] relates to mice. Briefly: Example 29: mCherry LNP IV in mice, liver and spleen by IHC, western blot, FACS. The class given is in vivo. The settings on record: LNP NPA-003-5, 100 ug IV, 24 hrs. The method, then:
The mCherry formulation, listed in Table 54, was characterized by particle size, zeta potential, and encapsulation.
Mice were sacrificed at 24 hrs after dosing. The liver and spleen from the mice administered with mCherry modified mRNA formulations were analyzed by immunohistochemistry (IHC), western blot, or fluorescence-activated cell sorting (FACS).

Data set [2] relates to HEK293 cells. Briefly: Example 46B: percent modification, HEK293 G-CSF ELISA (Table 75). The class given is cell-based, Human. Particulars: HEK293, 250 ng mRNA with RNAiMAX, supernatant after 16 hours.
The subject of data set [3] is peripheral blood mononuclear cells (PBMC). The format is cell-based, human. The method, then:
500 ng of G-CSF mRNA modified with 5-methylcytosine (5mC) and pseudouridine (pseudoU) or unmodified G-CSF mRNA was transfected with 0.4 uL of Lipofectamine 2000 into peripheral blood mononuclear cells (PBMC) from three normal blood donors (D1, D2, and D3). […] The supernatant was harvested 6 hours and 18 hours after transfection and run by ELISA to determine the protein expression. The expression of G-CSF, IFN-alpha, and TNF-alpha for Donor 1 is shown in Table 88, Donor 2 is shown in Table 89 and Donor 3 is shown in Table 90.

Data set [4] concerns rats. Briefly: Example 67: intravitreal mCherry/luciferase mRNA in rats, F-microscopy (Table 100). The class given is in vivo. The settings on record: saline, 18 hours. The text has this:
The sample was compared against a control of saline only delivered intravitreally.
The formulation will be administered to the left or right eye of each animal on day 1 while the animal is anesthetized. On the day prior to administration gentamicin ophthalmic ointment or solution was applied to both eyes twice. The gentamicin ophthalmic ointment or solution was also applied immediately following the injection and on the day following the injection. Prior to dosing, mydriatic drops (1% tropicamide and/or 2.5% phenylephrine) are applied to each eye.
18 hours post dosing the eyes receiving the dose of mCherry and delivery buffer are enucleated and each eye was separately placed in a tube containing 10 mL 4% paraformaldehyde at room temperature for overnight tissue fixation. The following day, eyes will be separately transferred to tubes containing 10 mL of 30% sucurose and stored at 21° C. until they were processed and sectioned. The slides prepared from different sections were evaluated under F-microscopy.

Data set [5] relates to BJ fibroblasts. Particulars: 250 ng transfected daily for 5 days.

Read-outs that look alike come from different tables or passages of the source.

B1: mCherry: mCherry mRNA (SEQ ID NO: 5; SEQ ID NO: 12 in Example 29), Cap1, fully modified with 5-methylcytosine and pseudouridine (nucleic acid)
chain: GGGAAAUAAGAGAGAAAAGAAGAGUAAGAAGAAAUAUAAGAGCCACCAUGGUAUCCAAGGGGGAGGAGGACAACAUGGCGAUCAUCAAGGAGUUCAUGCGAUUCAAGGUGCACAUGGAAGGUUCGGUCAACGGACACGAAUUUGAAAUCGAAGGAGAGGGUGAAGGAAGGCCCUAUGAAGGGACACAGACCGCGAAACUCAAGGUCACGAAAGGGGGACCACUUCCUUUCGCCUGGGACAUUCUUUCGCCCCAGUUUAUGUACGGGUCCAAAGCAUAUGUGAAGCAUCCCGCCGAUAUUCCUGACUAUCUGAAACUCAGCUUUCCCGAGGGAUUCAAGUGGGAGCGGGUCAUGAACUUUGAGGACGGGGGUGUAGUCACCGUAACCCAAGACUCAAGCCUCCAAGACGGCGAGUUCAUCUACAAGGUCAAACUGCGGGGGACUAACUUUCCGUCGGAUGGGCCGGUGAUGCAGAAGAAAACGAUGGGAUGGGAAGCGUCAUCGGAGAGGAUGUACCCAGAAGAUGGUGCAUUGAAGGGGGAGAUCAAGCAGAGACUGAAGUUGAAAGAUGGGGGACAUUAUGAUGCCGAGGUGAAAACGACAUACAAAGCGAAAAAGCCGGUGCAGCUUCCCGGAGCGUAUAAUGUGAAUAUCAAGUUGGAUAUUACUUCACACAAUGAGGACUACACAAUUGUCGAACAGUACGAACGCGCUGAGGGUAGACACUCGACGGGAGGCAUGGACGAGUUGUACAAAUGAUAAGCUGCCUUCUGCGGGGCUUGCCUUCUGGCCAUGCCCUUCUUCUCUCCCUUGCACCUGUACCUCUUGGUCUUUGAAUAAAGCCUGAGUAGGAAG
modifications: Cap1; 5-methylcytosine and pseudouridine
For B1, the “mCherry expression in liver (histology)” value in data set [1] is listed as “uniform mCherry expression throughout the section”. In addition, the “mCherry expression in spleen leukocyte populations (FACS)” value in data set [1] is reported as “negative for mCherry expression”. Besides, the “G-CSF Expression” value in data set [2] was found to be 0 ng/mL. The G-CSF in data set [3] (PBMC Donor 1, 500 ng mRNA, 6 hours) was determined as 0 pg/mL; in data set [3] (PBMC Donor 1, 500 ng mRNA, 18 hours) it was 0 pg/mL; in data set [3] (PBMC Donor 2, 500 ng mRNA, 6 hours), 0 pg/mL; in data set [3] (PBMC Donor 2, 500 ng mRNA, 18 hours) it was 7 pg/mL; in data set [3] (PBMC Donor 3, 500 ng mRNA, 6 hours), 0 pg/mL; in data set [3] (PBMC Donor 3, 500 ng mRNA, 18 hours), 0 pg/mL. Moreover, in data set [4], the “mCherry expression in eye sections” value is listed as “Positive expression was seen”. Moreover, the IFN-beta in data set [5] (6 hours) amounted to 0 pg/mL; in data set [5] (Day 1), 238 pg/mL; in data set [5] (Day 2) it was 113 pg/mL; in data set [5] (Day 3), 413 pg/mL; in data set [5] (Day 4) it was 413 pg/mL; in data set [5] (Day 5) it was 213 pg/mL. Moreover, the IL-6 in data set [5] (6 hours) is 3278 pg/mL; in data set [5] (Day 1), 3893 pg/mL; in data set [5] (Day 2), 1833 pg/mL; in data set [5] (Day 3), 25539 pg/mL; in data set [5] (Day 4), 29233 pg/mL; in data set [5] (Day 5), 20178 pg/mL.

The values above are taken from patent publication US20190142971A1, “FORMULATION AND DELIVERY OF MODIFIED NUCLEOSIDE, NUCLEOTIDE, AND NUCLEIC ACID COMPOSITIONS” (ModernaTX, Inc., priority 2013, published 2019).
